Measured values as given in patent US20030185792A1, “Morphogen analogs of bone morphogenic proteins” (Curis, Inc., priority 1996, published 2003).

T1: ECD of DAF-4 (Caenorhabditis elegans, UniProt P50488)
T1 construct: highly purified ECD of DAF-4 as type II receptor
T1 sequence (P50488 48-253 limits assumed): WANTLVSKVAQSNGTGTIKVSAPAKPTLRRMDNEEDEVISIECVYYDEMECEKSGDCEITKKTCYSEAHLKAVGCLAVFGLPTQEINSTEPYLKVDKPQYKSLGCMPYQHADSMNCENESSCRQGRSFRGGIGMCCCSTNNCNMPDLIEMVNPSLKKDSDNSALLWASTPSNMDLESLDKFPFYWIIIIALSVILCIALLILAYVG

T2: DAF-4 ECD (Caenorhabditis elegans, UniProt P50488)
T2 construct: highly purified ECD of DAF-4 as type II receptor
T2 sequence (P50488 48-253 limits assumed): T1 sequence (P50488 48-253 limits assumed)

B1: OP-1: osteogenic protein-1, a tissue morphogenic protein of the TGF-β superfamily; mature human OP-1 is SEQ ID No. 4 (protein, listed as Homo sapiens)
chain: CKKHELYVSFRDLGWQDWIIAPEGYAAYYCEGECAFPLNSYMNATNHAIVQTLVHFINPETVPKPCCAPTQLNAISVLYFDDSSNVILKKYRNMVVRACGCH

Legend:
ECD of DAF-4 = molecular target: T1, ECD of DAF-4; experiment: Type II receptor-based rapid solid phase assay; assay type: binding; settings: for inhibition of 125I-labeled OP-1 binding to the ECD of DAF-4: excess unlabeled competitor, FIG. 20
Procedure: iii. Type H Receptor-based rapid solid phase assay: OP-1 binding activity, and that of various synthetic peptides, may be determined by a rapid solid-phase assay using 125I-labeled OP-1 as ligand and highly purified ECD of DAF-4 as type II receptor. In a typical assay, ˜1 μg of ECD of DAF-4 receptor (R) is dissolved in 20 μl of 50 mM PBSA, pH 7.4 and immobilized on PVDF membranes (Immobilon-P) by using a slot-blot apparatus (VacuSlot-VS). A similarly immobilized polyclonal anti-OP-1 antibody (diluted Ab) has served as positive control, while bovine serum albumin (globulin free) and unrelated receptor ECD have served as negative controls in this assay. The receptor-containing membranes are incubated in 50 mM HEPES buffer, pH 7.4 containing 3% bovine serum albumin (BSA) for 14 h, in cold (4° C.), to block excess protein binding sites on the membrane. The blocking buffer is then replaced with 50 mM HEPES, pH 7.4 containing 0.5% BSA, 10 mM MgCl2 and 1 mM CaCl2, and the receptor-containing membranes are further incubated with ^125I-labeled OP-1 (˜400,000 cpm/ml) in the presence or absence of excess unlabeled OP-1 or test peptide for 18 h, with slow shaking at room temperature. Finally, the membranes are washed four times with 50 mM HEPES buffer, pH 7.4 containing 5 mM MgCl2 and 1 mM CaCl2, air dried and ^125I kept for autoradiography overnight.
Initial binding experiments were carried out to examine the role of the finger 2 region (Leu109-Arg129) of OP-1 in the interaction of OP-1 with the type II receptor. Incubation of DAF4 with radioiodinated OP-1 was done in the presence (a) and absence (b) of synthetic peptide (F2-3) corresponding to the indicated finger 2 region of OP-1. In parallel, immobilized receptor was incubated with radioiodinated OP-1 in the presence of unlabeled OP-1 which served as a positive control. […] These initial results thus identify that the finger 2 region (Leu109-Arg129) of OP-1 is likely a contact region in the interaction of OP-1 with the type II receptor.

DAF-4 ECD = molecular target: T2, DAF-4 ECD; experiment: Type II receptor-based ligand blot, DAF-4 ECD; assay type: binding; settings: FIG. 22
Procedure: (§1) iv. Type II receptor-based ligand-blot technique: A ligand blot method can be used to characterize OP-1 binding properties of highly purified DAF4 ECD and ROS cell receptor. Peptides are analyzed by this method to determine their ability to interact with type II receptor, based on their ability to inhibit ^125I-labeled OP-1 binding to the receptor. In a typical experiment, receptor-enriched ROS cell plasma membrane fraction or purified DAF-4 ECD is treated with SDS (final concentration 1.6%, w/v) in the presence of 17% glycerol on ice, as is known in the art, and subjected to SDS-PAGE under non-reducing conditions and without prior heating of the samples, according to the procedure of Laemmli. Receptor samples are electrophoressed at 35 mA and 4° C., in gradient (5-8% or 5-10%, w/v) acrylamide separating gels. Pre-stained markers of known MW, are used as standards. After SDS-PAGE, the resolved proteins from acrylamide gels are transblotted onto PVDF membranes (Immobilon-P transfer membranes) using an Pharmacia-LKB 2005 Transphor Unit, at constant current (0.2 A) and 4° C., for 16 h. Ligand blotting is carried out as follows. […]

ROS cell receptor = experiment: Type II receptor-based ligand blot, ROS cell receptor; assay type: binding, rat; settings: FIG. 21
Procedure: as §1

Molecule	binding to ECD of DAF-4 (ECD of DAF-4; FIG. 20 legend)	inhibition of 125I-labeled OP-1 binding to the ECD of DAF-4 (ECD of DAF-4)	binding of 125I-labeled OP-1 to DAF-4 ECD (DAF-4 ECD)	binding of 125I-labeled OP-1 to ROS cell receptor (ROS cell receptor)
F2-3: SEQ ID No. 19; 16 residues, finger 2 tip 11-residue loop with 5-residue C-terminal extension (CYFDDSSNVICKKYRS; listed as Homo sapiens)	binds to ECD of DAF-4	75%		
B1		78%	OP-1 binding to two closely migrated receptor components	specifically binds
